Two molecules from WO2010082134A1 (dated 2010) can be followed below.

In assay [1] the target is T1, B. anthracis lethal factor (LF) (Bacillus anthracis, UniProt P15917 34-809).
T1 sequence: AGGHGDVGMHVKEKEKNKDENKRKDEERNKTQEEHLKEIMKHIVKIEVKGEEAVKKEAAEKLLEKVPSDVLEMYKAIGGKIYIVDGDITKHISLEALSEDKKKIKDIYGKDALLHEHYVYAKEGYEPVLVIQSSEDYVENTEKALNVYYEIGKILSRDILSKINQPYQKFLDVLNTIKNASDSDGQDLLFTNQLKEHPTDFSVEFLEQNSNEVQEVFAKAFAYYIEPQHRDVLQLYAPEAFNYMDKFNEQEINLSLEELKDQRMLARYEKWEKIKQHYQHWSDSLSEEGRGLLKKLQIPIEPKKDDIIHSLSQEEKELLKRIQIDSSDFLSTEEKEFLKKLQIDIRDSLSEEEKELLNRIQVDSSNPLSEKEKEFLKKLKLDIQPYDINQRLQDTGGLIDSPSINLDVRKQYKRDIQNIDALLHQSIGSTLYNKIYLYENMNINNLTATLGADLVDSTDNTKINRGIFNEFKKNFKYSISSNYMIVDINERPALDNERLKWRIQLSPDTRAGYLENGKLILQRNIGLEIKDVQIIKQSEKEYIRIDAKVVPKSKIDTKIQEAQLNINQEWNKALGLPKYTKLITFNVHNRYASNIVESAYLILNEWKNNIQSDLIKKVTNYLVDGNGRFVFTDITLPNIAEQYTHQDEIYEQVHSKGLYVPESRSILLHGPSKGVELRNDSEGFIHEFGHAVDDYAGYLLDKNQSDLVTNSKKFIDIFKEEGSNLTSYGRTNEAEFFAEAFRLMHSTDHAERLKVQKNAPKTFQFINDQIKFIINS
Briefly: hybridoma screening by ELISA for anti-LF antibodies.

The target of assay [2] is B. anthracis protective antigen (PA) (Bacillus anthracis, UniProt P13423 30-764). Briefly: hybridoma screening by ELISA for anti-PA antibodies.
Chain of B. anthracis protective antigen (PA) (P13423 30-764 limits assumed): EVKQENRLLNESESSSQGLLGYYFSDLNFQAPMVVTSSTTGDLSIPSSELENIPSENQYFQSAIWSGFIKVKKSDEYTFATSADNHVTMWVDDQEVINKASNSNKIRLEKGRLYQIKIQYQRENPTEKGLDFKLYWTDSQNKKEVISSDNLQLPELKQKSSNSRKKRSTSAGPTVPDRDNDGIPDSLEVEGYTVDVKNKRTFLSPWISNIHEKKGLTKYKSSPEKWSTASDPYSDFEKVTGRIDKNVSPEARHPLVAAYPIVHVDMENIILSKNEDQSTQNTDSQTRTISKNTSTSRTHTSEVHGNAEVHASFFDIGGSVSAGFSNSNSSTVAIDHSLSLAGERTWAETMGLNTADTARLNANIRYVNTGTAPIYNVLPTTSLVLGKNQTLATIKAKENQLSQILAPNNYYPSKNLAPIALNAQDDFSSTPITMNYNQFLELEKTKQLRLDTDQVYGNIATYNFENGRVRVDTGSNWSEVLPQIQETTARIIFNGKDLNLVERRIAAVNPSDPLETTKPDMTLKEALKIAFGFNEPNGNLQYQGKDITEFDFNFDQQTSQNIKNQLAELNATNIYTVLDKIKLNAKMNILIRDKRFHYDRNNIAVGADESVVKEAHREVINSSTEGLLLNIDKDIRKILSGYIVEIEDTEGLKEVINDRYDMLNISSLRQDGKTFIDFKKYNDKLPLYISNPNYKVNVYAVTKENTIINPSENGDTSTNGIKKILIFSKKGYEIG

B1: human monoclonal antibody IQNLF (antibody, V domains shown)
VH: EVQLLESGGGLVQPGGSLRLSCSGSGFMFSSYAMSWVRQAPGKGLEWVSGISGSGGTTNYADSVKGRFTISRDNSKNTLYMQMNSLRAEDTAVYYCAKDGVYGRLGGSDYWGQGTLVTVSS
VL: EIVLTQSPDFQSVSPKEKVTITCRASQSVGSSLHWYQQKPDQSPKLLIKYASQSFSGVPSRFSGSGSGTDFTLTINSLETEDAATYYCHQSSSLPLTFGGGTKVEIKR
For the molecule B1, the binding result in assay [1] is on record as “binds”.

B2: human monoclonal antibody IQNPA (antibody, V domains shown)
VH: QVQLVQSGAEVKKPGASVKVSCKASGYTFTSNAIQWVRQAPGQRLEWVGWINGGDGNTKYSQKFQGRVTISRDISASTAYMELSSLRSEDTAVYYCARHRLQRGGFDPWGQGTLVTVSS
VL: EIVLTQSPGTLSLSPGERATLSCRASQSVSYSSLAWYQQKPGQAPSLLIYGASSRATGIPDRFSGSGSGPDFTLTISRLEPEDFAVYYCQHYGNSPYTFGQGTKLEIKR
Turning to B2, the binding result in assay [2] was “binds”.
